Our source for the percent of binding signal retained after 70 °C for 1 hour values is patent publication US20240150411A1.

Assay [1] concerns the target DS-Cav1-foldon-I53-50 nanostructure, 100% valency (respiratory syncytial virus (RSV)). Nature of the assay: SPR, D25 immobilised, antigen at 50 nM heat-stressed at 70 °C for 1 h (FIG. 10). (SPR reads the build-up and loss of mass on a sensor chip optically.)
The target in assay [2] is DS-Cav1-foldon-I53-50A trimer (respiratory syncytial virus (RSV)). The description is as above.

In the case of D25 monoclonal antibody, the percent of binding signal retained after 70 °C for 1 hour in assay [1] is 80%; in assay [2], 50%.
